Target: Pak2 kinase (UniProt Q13177)
Assay: cell-based or functional assay

UniProt Q13177, sequence (Q13177 2-524 limits assumed): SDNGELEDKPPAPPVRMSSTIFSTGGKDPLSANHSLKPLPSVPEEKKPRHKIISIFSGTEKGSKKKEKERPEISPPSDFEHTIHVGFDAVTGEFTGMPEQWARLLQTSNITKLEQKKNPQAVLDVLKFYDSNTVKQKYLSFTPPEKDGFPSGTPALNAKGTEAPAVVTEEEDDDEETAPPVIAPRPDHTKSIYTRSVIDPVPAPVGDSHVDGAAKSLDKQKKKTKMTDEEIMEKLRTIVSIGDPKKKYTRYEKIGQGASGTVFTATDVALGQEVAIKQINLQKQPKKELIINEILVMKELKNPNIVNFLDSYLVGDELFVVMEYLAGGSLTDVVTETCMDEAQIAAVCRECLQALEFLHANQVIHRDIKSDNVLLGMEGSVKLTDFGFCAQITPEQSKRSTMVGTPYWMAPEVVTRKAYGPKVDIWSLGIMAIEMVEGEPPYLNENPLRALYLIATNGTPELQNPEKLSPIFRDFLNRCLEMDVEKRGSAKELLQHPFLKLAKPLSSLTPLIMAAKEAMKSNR

HIV-1 Nef protein, wild type (Nef from HIV-1 Clade B)
phosphorylation of the Pak2 kinase at S55, quantitative phosphoproteomics of NALM6-stimulated CAR T cells, Nef-WT compared to NefAxxA: 2.15 log2Fc
phosphorylation of the Pak2 kinase at S152, quantitative phosphoproteomics of NALM6-stimulated CAR T cells, Nef-WT compared to NefAxxA: 1.17 log2Fc

From patent publication EP4683932A2
